We go through one molecule from patent US20190367615A1 (BEIJING HANMI PHARM, published 2019).

The target in test [1] is T1, Recombinant human PD-1 (Sino Biological Inc., Catalog Number 10377-H08H) (human, UniProt Q15116 25-167).
T1 construct: Bought protein; also called antigen PD-1
The experiment in a line: ELISA, human PD-1 coated. The procedure: (§1) Recombinant human PD-1 (purchased from Sino Biological Inc.) was coated on a 96-well high-absorbing ELISA plate with a carbonate buffer solution with pH 9.6, the coating concentration was 1 μg/mL, the coating amount was 100 μL per well, and the coating was carried out at 4° C. overnight. The plate was washed five times with PBST and blocked with 300 μL/well of PBST containing 1% BSA, and then incubated at 25° C. for 1 hour. The plate was washed five times with PBST. […] The plate was washed five times with PBST. Then, horseradish peroxidase-labeled anti-human IgG antibody (Chemicon, Catalog Number AP309P) 1:2000 diluted in PBST containing 1% BSA was added, 100 μL per well, incubated at 25° C. for 1 hour. The plate was washed five times with PBST. 100 μL/well of colorimetric substrate TMB was added and incubated at room temperature for 10 minutes. Color development was terminated by adding 100 μL/well of 1 M H₂SO₄. The absorbance at 450 nm was read on a microplate reader.

The target in test [2] is T2, Recombinant human PD-1-Fc (human, UniProt Q15116 25-167, limits assumed).
T2 construct: also called recombinant human PD-1-Fc protein; not shown: Fc part
The experiment in a line: competition ELISA, coated human PD-1-Fc, blocked ligand biotin-labeled PD-L2 (final 160 nM), streptavidin-HRP, OD450nm [panel PD-1/PD-L2 Blocking Activity]. The procedure: (§2) Recombinant human PD-1-Fc was coated on a 96-well high-absorbing ELISA plate with a carbonate buffer solution with pH 9.6, the coating concentration was 1 μg/mL, the coating amount was 100 μL per well, and the coating was carried at 4° C. out overnight. The plate was washed five times with PBST and blocked with 300 μL/well of PBST containing 1% BSA and incubated at 25° C. for 1 hour. The plate was washed five times with PBST. The positive control and the anti-human PD-1 antibody sample were added, 50 μL per well. […] The plate was washed five times with PBST. Then, Streptavidin-HRP (BD Pharmingen, Catalog Number 554066) 1:1000 diluted in PBST containing 1% BSA was added, 100 μL per well, incubated at 25° C. for 1 hour. The plate was washed five times with PBST. 100 μL/well of colorimetric substrate TMB was added and incubated at room temperature for 10 minutes. Color development was terminated by adding 100 μL/well of 1 M H₂SO₄. The absorbance at 450 nm was read on a microplate reader.

For test [3], the target named is T3, Recombinant human CD86 (Sino Biological Inc.) (human, UniProt P42081 24-247, limits assumed).
T3 sequence (looked up): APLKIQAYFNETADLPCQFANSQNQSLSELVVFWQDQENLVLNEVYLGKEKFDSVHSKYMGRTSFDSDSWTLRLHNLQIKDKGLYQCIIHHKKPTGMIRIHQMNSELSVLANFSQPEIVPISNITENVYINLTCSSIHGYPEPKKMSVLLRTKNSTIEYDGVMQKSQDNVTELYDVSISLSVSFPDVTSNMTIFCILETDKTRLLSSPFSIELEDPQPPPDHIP
The experiment in a line: binding specificity ELISA, coated recombinant human CD86, anti-human IgG-HRP. The procedure:
as §1, with “The” for “Recombinant human PD-1 (purchased from Sino Biological Inc.) was coated on a 96-well high-absorbing ELISA plate with a carbonate buffer solution with pH 9.6, the coating concentration was 1 μg/mL, the coating amount was 100 μL per well, and the coating was carried out at 4° C. overnight. The”, “1% BSA” for “1% BSA,”, “and” for “and then”, “μL was added to each” for “μL per”

Test [4] deals with T1, Recombinant human PD-1 (Sino Biological …). Nature of the test: ELISA, coated recombinant human PD-1 (1 ug/mL), detection with anti-human IgG-HRP, OD450nm. The procedure: as §1
The target of test [5] is T2, Recombinant human PD-1-Fc. Nature of the test: competition ELISA, coated human PD-1-Fc, blocked ligand biotin-labeled PD-L1 (final 10 nM), streptavidin-HRP, OD450nm [panel PD-1/PD-L1 Blocking Activity]. The procedure: as §2
Test [6] has as its target T1, Recombinant human PD-1 (Sino Biological …). Nature of the test: SPR (Biacore X100), antibody captured on anti-human IgG CM5 chip, PD-1 as analyte. Here is the method:
The instrument utilizes an optical surface plasmon resonance technique to detect association and dissociation between a molecule coupled on a sensor chip and an analyte. CM5 chips (GE Healthcare, BR-1000-12) were used. […] In the association phase, the antigen PD-1 was diluted to multiple concentrations with a running buffer, and injected at a rate of 30 μL/min for 180 seconds. In the dissociation phase, the duration of the dissociation was 1200 seconds. Glycine solution (GE Healthcare, BR-1003-54) was used to regenerate for 30 seconds at a speed of 10 μL/min. […] Association rate constant and dissociation rate constant were analyzed and calculated by Biacore X100 evaluation software.

In test [7] the target is Recombinant human PD-L1 (Sino Biological Inc.) (human, UniProt Q9NZQ7 19-239). The experiment in a line: binding specificity ELISA, coated recombinant human PD-L1, anti-human IgG-HRP. Here is the method: as §1, with “The” for “Recombinant human PD-1 (purchased from Sino Biological Inc.) was coated on a 96-well high-absorbing ELISA plate with a carbonate buffer solution with pH 9.6, the coating concentration was 1 μg/mL, the coating amount was 100 μL per well, and the coating was carried out at 4° C. overnight. The”, “1% BSA” for “1% BSA,”, “and” for “and then”, “μL was added to each” for “μL per”

In test [8] the target is T2, Recombinant human PD-1-Fc. The experiment in a line: competition ELISA, PD-1-Fc coated, competitor biotin-labeled PD-L1. The procedure:
as §2

T2 sequence (Q15116 25-167 limits assumed): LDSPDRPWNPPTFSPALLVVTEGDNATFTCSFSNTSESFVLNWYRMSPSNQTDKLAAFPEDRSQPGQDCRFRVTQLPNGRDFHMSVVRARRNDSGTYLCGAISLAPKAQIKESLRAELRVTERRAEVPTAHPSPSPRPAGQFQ
T1 sequence (Q15116 25-167 limits assumed): as above
Recombinant human PD-L1 (Sino Biological Inc.), sequence (Q9NZQ7 19-239 limits assumed): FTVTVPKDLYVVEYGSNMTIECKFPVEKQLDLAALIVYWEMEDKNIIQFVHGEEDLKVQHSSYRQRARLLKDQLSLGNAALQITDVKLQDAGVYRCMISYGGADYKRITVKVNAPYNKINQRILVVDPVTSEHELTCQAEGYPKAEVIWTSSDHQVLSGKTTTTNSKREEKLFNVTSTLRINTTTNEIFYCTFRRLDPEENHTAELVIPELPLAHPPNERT

B1: anti-human PD-1 chimeric monoclonal antibody (antibody, human IgG4 S228P, kappa, V domains shown)
VH: EVQLQESGGGLVKPGGSLKLSCAASGFTFSSYGMSWVRQTPEKRLEWVASISGGGRYTYYPDSMKGRFTISRDNAKNNLHLQMSSLRSEDTALYYCVYEYFYTMDYWGQGTSVTVSS
VL: DIVLTQSPATLSVTPGDSVSLSCRANQSISNNLHWYQQRSHESPRLLIRFASQSISGIPSRFSGSGSGTDFTLSINSVETEDFGMYFCQQSDNWPLTFGAGTKLEIKR
notes: expressed in 293F cells; also called Anti-human PD-1 Chimeric Antibody; chimeric anti-human PD-1 monoclonal antibody
B1: the EC50 in test [1] came to 31 pM; in test [4] it was 92 pM. Also, the IC50 in test [2] came to 895 pM; in test [5] it was 972 pM; in test [8], 1450 pM. Further, the binding result in test [3] and in test [7] was “no binding” each time. Moreover, the equilibrium dissociation constant (Kd) in test [6] was determined as 1370 pM. Further, the koff in test [6] was determined as 0.000295 s⁻¹. The kon in test [6] was 215000 M⁻¹ s⁻¹.
